The results in this text go back to publication PMC7687109, “Effect of structural stability on endolysosomal degradation and T‐cell reactivity of major shrimp allergen tropomyosin” (Allergy, 2020).

The term stoichiometry N denotes the number of molecules, sites or subunits per partner or assembly.

Assay in all cases: SEC-MALS; purified recombinant tropomyosin, neutral pH (pH 7.4), constant temperature of 25°C; molar mass from the peaks
In series [1] the target is Der p 10 (house dust mite tropomyosin) (Dermatophagoides pteronyssinus).
The target in series [2] is Pen m 1 (black tiger shrimp tropomyosin) (Penaeus monodon).
Series [3] deals with the molecule itself.

As to “Der p 10 (house dust mite tropomyosin) (natural protein)”, in series [1], the stoichiometry N was determined as 2. Turning to “Pen m 1 (black tiger shrimp tropomyosin) (natural protein)”, the stoichiometry N in series [2] came out at 2.

B1: Bla g 7 (German cockroach tropomyosin) (natural protein, Blattella germanica, UniProt Q9NG56 1-284, looked up)
chain: MDAIKKKMQAMKLEKDNAMDRALLCEQQARDANIRAEKAEEEARSLQKKIQQIENDLDQTMEQLMQVNAKLDEKDKALQNAESEVAALNRRIQLLEEDLERSEERLATATAKLAEASQAADESERARKILESKGLADEERMDALENQLKEARFMAEEADKKYDEVARKLAMVEADLERAEERAETGESKIVELEEELRVVGNNLKSLEVSEEKANLREEEYKQQIKTLNTRLKEAEARAEFAERSVQKLQKEVDRLEDELVHEKEKYKYICDDLDMTFTELIGN
Regarding B1, in series [3], the “stoichiometry N” value worked out at 2.

B2: Ani s 3 (Anisakis tropomyosin) (natural protein, Anisakis simplex, UniProt Q9NAS5 1-284, looked up)
chain: MDAIKKKMQAMKIEKDNALDRADAAEEKVRQMTDKLERIEEELRDTQKKMMQTENDLDKAQEDLSTANSNLEEKEKKVQEAEAEVAALNRRMTLLEEELERAEERLKLATAKLEEATHTADESERVRKVMENRSFQDEERANTVESQLKEAQMLAEEADRKYDEVARKLTMVEADLERAEERAETGENKIVELEEELRVVGNNLKSLEVSEEKALQREDSYEEQIRTVSARLKEAETRAEFAERSVQKLQKEVDRLEDELVHEKERYKSISEELDQTFQELSGY
notes: also called fish parasite tropomyosin
Turning to B2, in series [3], the “stoichiometry N” value was 2.
